{"source": "paper PMC10986958", "about": "(PLOS Pathogens, 2024)", "experiment_in_all_cases": "ITC", "details_in_all_cases": "both partners purified", "key": {"[1]": {"biological_target": "LC3A (residues 1-121 of human LC3A) (human, UniProt Q9H492 1-121)"}, "[2]": {"biological_target": "T1, GABARAP (residues 1-117 of human GABARAP) (human, UniProt O95166 1-117)", "T1 sequence (O95166 whole entry, the tested form may be a part)": "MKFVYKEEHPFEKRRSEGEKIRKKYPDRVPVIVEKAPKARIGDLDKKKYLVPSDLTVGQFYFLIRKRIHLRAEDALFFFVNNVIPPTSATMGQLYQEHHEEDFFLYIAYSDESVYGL"}, "[3]": {"biological_target": "T1, GABARAP (residues 1-117 of human …)", "remark": "listed apart in the source"}, "[4]": {"biological_target": "T2, LC3B (residues 1-125 of human LC3B) (human, UniProt Q9GZQ8 1-125)"}, "[5]": {"biological_target": "T3, GABARAPL1 (residues 1-117 of human GABARAPL1) (human, UniProt Q9H0R8 1-117)", "T3 construct": "also called GABARPL1", "T3 sequence (Q9H0R8 whole entry, the tested form may be a part)": "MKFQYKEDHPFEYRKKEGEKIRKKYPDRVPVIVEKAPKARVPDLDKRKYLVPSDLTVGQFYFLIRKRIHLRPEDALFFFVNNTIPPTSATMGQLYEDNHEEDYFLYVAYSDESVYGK"}, "[6]": {"biological_target": "T2, LC3B (residues 1-125 of human LC3B)", "remark": "listed apart in the source"}, "[7]": {"biological_target": "T3, GABARAPL1 (residues 1-117 of human …)", "remark": "listed apart in the source"}}}
{"binder": "DYFPVISVDLQSGRR", "note": "[NSs1 (residues 2-16 of RVFV NSs)]", "values": [{"measurement": "Kd", "setting": "[1]", "value": "> 100", "unit": "µM"}, {"measurement": "Kd", "setting": "[2]", "value": "> 100", "unit": "µM"}]}
{"binder": "RLRFSDFYNVGEFPYRVGLG", "note": "[NSs2 (residues 53-72 of RVFV NSs)]", "values": [{"measurement": "Kd", "setting": "[1]", "value": "> 100", "unit": "µM"}, {"measurement": "Kd", "setting": "[2]", "value": "> 100", "unit": "µM"}]}
{"binder": "GRNNWIPVIPPIPDVEMESEEE", "note": "[NSs3 (residues 234-255 of RVFV NSs)]", "values": [{"measurement": "Kd", "setting": "[1]", "value": "> 100", "unit": "µM"}, {"measurement": "stoichiometry N", "setting": "[2]", "value": 1}, {"measurement": "Kd", "setting": "[3]", "value": 16, "unit": "µM"}]}
{"binder": "DVEMESEEESDDDGFVEVD", "note": "[NSs4 (residues 247-265 of RVFV NSs)]", "values": [{"measurement": "stoichiometry N", "setting": "[4]", "value": 1}, {"measurement": "stoichiometry N", "setting": "[5]", "value": 1}, {"measurement": "Kd", "setting": "[6]", "value": 0.6, "unit": "µM"}, {"measurement": "Kd", "setting": "[7]", "value": 0.49, "unit": "µM"}]}
